Experimental data reported in PMC10248732.
Like-named read-outs stand apart in the source and are kept apart here.

Key:
GST-OsLUX [1] = target: T1, GST-OsLUX (Oryza sativa, UniProt Q94DH3 1-238); experiment: EMSA
T1 sequence: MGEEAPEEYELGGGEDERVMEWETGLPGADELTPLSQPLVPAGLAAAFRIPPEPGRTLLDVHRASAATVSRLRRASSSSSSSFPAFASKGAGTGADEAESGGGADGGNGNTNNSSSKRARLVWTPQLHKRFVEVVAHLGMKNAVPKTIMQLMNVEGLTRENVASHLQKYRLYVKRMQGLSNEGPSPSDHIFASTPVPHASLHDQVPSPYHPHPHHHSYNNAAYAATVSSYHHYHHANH

GST-OsLUX [2] = target: T1, GST-OsLUX; experiment: EMSA; remark: listed apart in the source

B1: Hd1-P (S4 LBS, 3 copies) (dsDNA)
DNA 1: CGCTGGATTCGACTTGCGCTGGATTCGACTTGCGCTGGATTCGACTTG
DNA 2: CAAGTCGAATCCAGCGCAAGTCGAATCCAGCGCAAGTCGAATCCAGCG
binding result (GST-OsLUX [1]): binds

B2: Ghd7-P (LBS, 3 copies) (dsDNA)
DNA 1: CAGCACGAATCTTGAGCAGCACGAATCTTGAGCAGCACGAATCTTGAG
DNA 2: CTCAAGATTCGTGCTGCTCAAGATTCGTGCTGCTCAAGATTCGTGCTG
binding result (GST-OsLUX [2]): binds
